According to the supplement of paper PMC6757056:
± gives the standard deviation of the averaged measurements.

B1: library; a variant is named by its letters at N, in order (parent)
chain: GCUGUCACCGGUGCUUGGUACGUUAUAUUCAGCCGGUCUGAUGAGUCUNNNNNNAGACGAAACAGC

Experiments:
[1] = variants of: B1; test: FACS-Seq fitted mean relative fluorescence mCherry/BFP without ligand (log10 relative fluorescence); HEK293T overexpressing SLC46A1; higher = higher reporter protein expression; conditions: without (6R,S)-folinic acid; ligand present: no
Summary of the method: (§1)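 Fluorescence comes from a normal fit to bin counts, normalized against controls. HEK293T libraries lentivirally given a ribozyme-switch mCherry reporter and an EF1α-BFP marker were enriched, incubated 48 h with or without ligand, and sorted by mCherry/BFP into 6 bins. Bin genomic DNA was PCR-amplified, barcoded and sequenced on MiSeq. The log10(mCherry/BFP) mean was scaled to five spiked-in control ribozymes.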

[2] = variants of: B1; test: normalized RNA/DNA level without ligand (relative to sTRSVctl = 100) (log10 (% of sTRSVctl)); HEK293T overexpressing SLC46A1; higher = less ribozyme self-cleavage, higher mRNA level; conditions: without (6R,S)-folinic acid; ligand present: no
Protocol: (§2)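 Hammerhead (sTRSV) ribozyme switch libraries with a ligand aptamer grafted on stem I and a randomized N4-6 loop II, cloned into the 3' UTR of mCherry and transiently transfected into HEK293T cells; RNA-Seq 72 h post transfection with ligand added 1 h before transfection; RNA read count / plasmid DNA read count normalized to the non-cleaving sTRSVctl (x100), log10; sequences with >100 DNA reads. FACS-Seq: lentiviral library sorted into 6 bins after 48 h ligand, log-normal fit mean of mCherry/BFP scaled to controls. Printed sequences are partial switch sequences.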

[3] = variants of: B1; test: FACS-Seq fitted mean relative fluorescence mCherry/BFP with ligand (log10 relative fluorescence); HEK293T overexpressing SLC46A1; ligand concentration (+) FACS-Seq: 6 mM; higher = higher reporter protein expression; conditions: with (6R,S)-folinic acid; ligand present: yes
Summary of the method: as §1

[4] = variants of: B1; test: normalized RNA/DNA level with ligand (relative to sTRSVctl = 100) (log10 (% of sTRSVctl)); HEK293T overexpressing SLC46A1; ligand concentration (+) RNA-Seq: 6 mM; higher = less ribozyme self-cleavage, higher mRNA level; conditions: with (6R,S)-folinic acid; ligand present: yes
Protocol: as §2

Variant | FACS-Seq fitted mean (log10) [1] | normalized RNA/DNA level without ligand (log10) [2] | FACS-Seq fitted mean (log10) [3] | normalized RNA/DNA level with ligand (log10) [4]
GAGCAC | 0.00982 ± 0.061 | 2.002 ± 0.02 | -0.159 ± 0.38 | 2.042 ± 0.0057
GAGCAU | 0.407 ± 0.06 | 1.979 ± 0.015 | 0.546 ± 0.41 | 2.016 ± 0.015
GAGCAG | 0.523 ± 0.06 | 1.96 ± 0.004 | 0.688 ± 0.3 | 2.02 ± 0.058
AAUAUC | 0.448 ± 0.061 | 2.03 ± 0.042 | 0.348 ± 0.12 | 2.02 ± 0.048
AAUAUG | 0.207 ± 0.053 | 1.895 ± 0.0025 | 0.137 ± 0.061 | 1.99 ± 0.034
AAUAUA | 0.602 ± 0.02 | 1.95 ± 0.0055 | 0.4362 ± 0.00063 | 1.99 ± 0.039
AAUAUU | 0.567 ± 0.082 | 1.981 ± 0.011 | 0.295 ± 0.01 | 1.99 ± 0.029
CAUCGC | 0.37 ± 0.072 | 2.019 ± 0.0067 | 0.228 ± 0.031 | 1.99 ± 0.041
GAUAUG | 0.0919 ± 0.075 | 1.919 ± 0.005 | 0.0285 ± 0.14 | 2 ± 0.038
GAUAUA | 0.295 ± 0.015 | 1.96 ± 0.005 | 0.482 ± 0.11 | 2 ± 0.028
AAGGGU | -0.0258 ± 0.095 | 1.952 ± 0.0044 | -0.308 ± 0.14 | 2.02 ± 0.032
AAGGGA | 0.125 ± 0.041 | 1.949 ± 0.0036 | 0.0354 ± 0.14 | 2.03 ± 0.03
GAGUAA | 0.434 ± 0.18 | 1.9346 ± 0.0017 | 0.44 ± 0.3 | 1.99 ± 0.029
GAGUAG | 0.282 ± 0.0024 | 1.936 ± 0.017 | 0.0667 ± 0.095 | 1.99 ± 0.034
GAGUAC | 0.375 ± 0.091 | 1.952 ± 0.012 | 0.311 ± 0.16 | 2 ± 0.033
UAUAGA | 0.233 ± 0.082 | 1.911 ± 0.003 | 0.417 ± 0.064 | 1.989 ± 0.013
UAUAGG | 0.0298 ± 0.024 | 1.58 ± 0.029 | 0.514 ± 0.24 | 1.92 ± 0.02
UAUAGC | 0.469 ± 0.011 | 1.943 ± 0.018 | 0.395 ± 0.19 | 1.98 ± 0.036
